Results as given in US20150148403A1 (ACADEMIA SINICA, published 2015).
Numbering of substitutions follows the chain as printed. Numbers in names are those of the source. One block for each binder: values may come before it.

How the values were obtained:
[1] = molecular target: poly-ubiquitinated PLZF/RARA immunoprecipitated from HEK-293T cells expressing Flag-tagged PLZF/RARA and Myc-tagged Ub
Flag-tagged USP37 = molecular target: T1, Flag-tagged USP37 (human, UniProt Q86T82 1-979); experiment: co-immunoprecipitation from transfected HEK-293T cells
T1 construct: Expressed in transfected HEK-293T cells and tested in lysate by co-immunoprecipitation; also called Flag-USP37; USP37 WT; not shown: 3xFLAG tag from the pCMV-3xFLAG vector
T1 sequence: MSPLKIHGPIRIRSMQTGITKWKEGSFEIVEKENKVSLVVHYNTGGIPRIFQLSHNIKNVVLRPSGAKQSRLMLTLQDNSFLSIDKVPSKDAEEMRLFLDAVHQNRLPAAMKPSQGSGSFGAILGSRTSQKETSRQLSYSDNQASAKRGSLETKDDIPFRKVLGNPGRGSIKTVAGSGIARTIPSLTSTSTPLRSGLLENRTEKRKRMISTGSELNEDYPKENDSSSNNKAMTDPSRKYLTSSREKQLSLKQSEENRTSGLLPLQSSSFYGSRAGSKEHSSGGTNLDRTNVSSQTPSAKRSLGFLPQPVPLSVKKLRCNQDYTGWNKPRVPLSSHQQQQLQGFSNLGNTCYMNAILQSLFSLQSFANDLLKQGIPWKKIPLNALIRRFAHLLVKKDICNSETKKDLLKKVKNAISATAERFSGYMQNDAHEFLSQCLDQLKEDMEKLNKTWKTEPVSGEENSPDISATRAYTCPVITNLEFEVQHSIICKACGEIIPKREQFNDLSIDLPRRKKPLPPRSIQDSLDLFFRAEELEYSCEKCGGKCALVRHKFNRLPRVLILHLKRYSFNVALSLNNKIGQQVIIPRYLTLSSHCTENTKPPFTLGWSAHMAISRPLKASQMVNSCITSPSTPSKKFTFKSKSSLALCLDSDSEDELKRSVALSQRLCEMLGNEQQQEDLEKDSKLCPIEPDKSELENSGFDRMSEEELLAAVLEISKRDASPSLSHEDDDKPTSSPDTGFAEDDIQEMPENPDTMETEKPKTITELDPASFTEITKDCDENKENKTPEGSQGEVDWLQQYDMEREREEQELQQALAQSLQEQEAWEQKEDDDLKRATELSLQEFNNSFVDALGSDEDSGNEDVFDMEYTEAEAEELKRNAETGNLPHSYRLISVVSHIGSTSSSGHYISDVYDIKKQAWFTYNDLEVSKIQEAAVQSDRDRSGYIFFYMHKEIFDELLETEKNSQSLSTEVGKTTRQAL

B1: MBP-fused USP37 recombinant protein (protein)
chain: T1 sequence
in vitro deubiquitination of poly-ubiquitinated PLZF/RARA (immunoblot) [1]: the recombinant USP37 WT but not CA mutant could deubiquitinate PLZF/RARA in vitro

B2: recombinant USP37 CA mutant (USP37 C350A) (protein)
chain: T1 sequence with C350A
in vitro deubiquitination of poly-ubiquitinated PLZF/RARA (immunoblot) [1]: the recombinant USP37 WT but not CA mutant could deubiquitinate PLZF/RARA in vitro

binding result (Flag-tagged USP37): no binding
B3: HA-tagged RARA (receptor, UniProt P10276 1-462, looked up)
chain: MASNSSSCPTPGGGHLNGYPVPPYAFFFPPMLGGLSPPGALTTLQHQLPVSGYSTPSPATIETQSSSSEEIVPSPPSPPPLPRIYKPCFVCQDKSSGYHYGVSACEGCKGFFRRSIQKNMVYTCHRDKNCIINKVTRNRCQYCRLQKCFEVGMSKESVRNDRNKKKKEVPKPECSESYTLTPEVGELIEKVRKAHQETFPALCQLGKYTTNNSSEQRVSLDIDLWDKFSELSTKCIIKTVEFAKQLPGFTTLTIADQITLLKAACLDILILRICTRYTPEQDTMTFSDGLTLNRTQMHNAGFGPLTDLVFAFANQLLPLEMDDAETGLLSAICLICGDRQDLEQPDRVDMLQEPLLEALKVYVRKRRPSRPHMFPKMLMKITDLRSISAKGAERVITLKMEIPGSMPPLIQEMLENSEGLDTLSGQPGGGGRDGGGLAPPPGSCSPSLSPSSNRSSPATHSP
notes: Expressed in transfected HEK-293T cells; not shown: HA tag
